Data set [1] relates to colon tissue markers (ZO-1, Ki67, Axin2, Cdkn3, S100A9, CD45). As to the kind of experiment: RNA in situ hybridization and immunohistochemistry/immunofluorescence of colon tissue, DSS model. It is filed as in vivo, mouse. As to conditions: day 10 of the DSS model. An excerpt:
Expression of mRNA was detected by RNAscope in situ hybridization (ACD Bio). RNAscope probes used are listed below. For colorimetric visualization, standard RNAscope® 2.5 HD Assay-Red protocol (www.acdbio.com) was followed, and images were acquired on a Leica DMi8 microscope equipped with a DFC7000T color camera. For fluorescent RNAscope in situ hybridization, standard RNAscope Multiplex Fluorescent Reagent Kit v2 Assay protocol was followed (ACD Bio Document #323100-USM) and coupled with the TSA Plus Cyanine 3 and 5 Systems. Fluorescent images were acquired with a Leica Thunder imaging system.
In brief, five-micron thick formalin fixed paraffin embedded tissue sections on slides were deparaffinized followed by citrate buffer (pH 6) antigen retrieval in a steamer. Slides were then washed thoroughly in tap water followed by 1× wash in PBST. Subsequently, tissue sections were blocked with serum free protein block (Agilent, X090930-2) for one hour at room temperature followed by incubation in primary antibodies. After primary antibody incubation, tissue sections were washed in 0.1% TX-100 in PBS (PBST) at least three times followed by incubation in secondary antibody. Afterwards, tissue sections were washed with PBST, and coverslips were mounted with Vectashield Vibrance antifade mounting medium with DAPI (Vector Laboratories, H-1800).

Data set [2] deals with DSS induced acute colitis in C57BL6/J mice. As to the kind of experiment: DSS induced acute colitis model. The format is in vivo, mouse. As to conditions: two doses day 4 and day 7, evaluated day 10. As for the experimental part: 7- to 8-week-old female C57BL6/J mice were fed with 4% (wt/vol) Dextran Sulfate Sodium (DSS, MP Biomedicals, molecular weight 36-50 kDa, Ref #160110) in drinking water from day 1 to day 7 to induce colitis and were switched to 1% DSS from day 8. […] Animals were terminated on day 10, allowing a 6-day course of protein treatment, and the colon was harvested for histology and RT-qPCR. […] The disease activity index (DAI) was calculated based on the average score of weight loss, stool consistency and the degree of intestinal bleeding (Wirtz Stefan et al., 2017). Scoring system by grading was on a scale of 0 to 4 using the following parameters: loss of weight (0, 0-1%; 1, 1-6%; 2, 6-12%; 3, 12-18%; 4, >18%), stool consistency (0, normal; 1, soft but still formed; 2, soft; 3, very soft, wet; 4, watery diarrhea) and intestine bleeding (0-1, negative hemoccult; 2, positive hemoccult; 3, blood traces in stool visible; 4, gross rectal bleeding).
Small intestine and colon were extracted and, after removing fecal content, weighted and length measured. The desired small intestine segments (duodenum, jejunum, ileum) and colon segments (ascending, transverse and descending colon) were cut out and fixed directly in 10% neutral buffered formalin (NBF) overnight. Tissues were then transferred to 70% ethanol before paraffin embedding. Paraffin tissue blocks were then sectioned to […] thickness and stained with hematoxylin and eosin (H&E) for histology analysis. Pathology reading was performed by an independent pathologist.
[…] Groups of mice were either untreated, treated with an isotype control antibody (anti-GFP), or treated with the indicated engineered Wnt agonist once on day 4 or twice on day 4 and 7. […]
The 123 mice total were grouped: (Day3=13, day4=13, day5=26, day6=24, day7=26, day10=21), with 91 used for histology endpoints, and 21 for scRNA-seq (group eliminated because of machinery). Daily food intake, BW, fecal score, and occult blood were measured. […]

For data set [3], the system named is Mouse small intestinal organoids. As to the kind of experiment: Organoid culture and proliferation assay. It is filed as cell-based. Particulars: organoids treated with Porcupine inhibitor IWP2. As to the method:
Mouse small intestinal organoids were maintained in mouse IntestiCult™ Organoid Growth Medium ([…] technologies) and passaged once a week until the date of assay for Wnt mimetic activity (H. Chen, Lu, Lee, & Li, 2020). To assay for organoid proliferation, organoids were dissociated with Gentle Cell Dissociation Reagent ([…] technologies) for 10 min with shaking, washed 2× in cold PBS (Gibco) and resuspended 1:1 in Matrigel (Corning) on ice. 25 ul of cell resuspension in Matrigel was seeded to the center of each well on a prewarmed 48-well tissue culture plate and let solidify for 5 min at 37 degrees. 300 ul of Basal Media (Table 10), Basal Media+IWP2+anti-βGal or Basal Media+IWP2+Wnt mimetic was applied to the wells. Each condition included 5-6 repeats. Media and treatments were changed once on Day 4 after plating. Images of the 3D cultured organoids were acquired on Day 7.
Mouse small intestinal organoids were treated with the Porcupine inhibitor IWP2 to inhibit endogenous Wnt ligand secretion in the cultured organoid. When these organoids were subject to no protein treatment or were treated with a control anti-β-gal IgG, the organoids were not maintained and quickly degenerated.

B1: R2M3-26: Fzd1,2,5,7,8 pan specific Wnt mimetic targeting FZD1,2,5,7,8 and LRP6 (protein)
light: DVQLVESGGGLVQAGGSLRLACAGSGRIFAIYDIAWYRHPPGNQRELVAMIRPVVTEIDYADSVKGRFTISRNNAMKTVYLQMNNLKPEDTAVYYCNAKRPWGSRDEYWGQGTQVTVSSGSGSGQAVVLQEPSLSVSPGGTVTLTCGLSSGSVSTNYYPSWYQQTPGQAPRTLIYYTNTRSSDVPERFSGSIVGNKAALTITGAQPDDESVYFCLLYLGRGIWVFGGGTKLTVLGQPKAAPSVTLFPPSSEELQANKATLVCLISDFYPGAVTVAWKADSSPVKAGVETTTPSKQSNNKYAASSYLSLTPEQWKSHRSYSCQVTHEGSTVEKTVAPTECS
heavy: EVQLVQSGAEVKKPGASVKVSCKASGYTFTSYGISWVRQAPGQGLEWMGWISAYNGNTNYAQKLQGRVTMTTDTSTSTAYMELRSLRSDDTAVYYCASSKEKATYYYGMDVWGQGTTVTVSSASTKGPSVFPLAPSSKSTSGGTAALGCLVKDYFPEPVTVSWNSGALTSGVHTFPAVLQSSGLYSLSSVVTVPSSSLGTQTYICNVNHKPSNTKVDKKVEPKSCDKTHTCPPCPAPEAAGGPSVFLFPPKPKDTLMISRTPEVTCVVVDVSHEDPEVKFNWYVDGVEVHNAKTKPREEQYNSTYRVVSVLTVLHQDWLNGKEYKCKVSNKALGAPIEKTISKAKGQPREPQVYTLPPSREEMTKNQVSLTCLVKGFYPSDIAVEWESNGQPENNYKTTPPVLDSDGSFFLYSKLTVDKSRWQQGNVFSCSVMHEALHNHYTQKSLSLSPGK
In the case of B1, in data set [1], the “Ki67 expression in duodenum and colon” value is on record as “did not lead to an expansion of Ki67”. In data set [2] (reduced from 4.75, see WO 2020/185960A1), the “histology (colitis) score” value is recorded as 2.0. In data set [2] (versus PBS or anti-GFP), the “crypt architecture and tissue inflammation” value is “restored crypt architecture with less tissue inflammation”. Further, in data set [3], the “organoid proliferation and growth” value is “able to stimulate cell proliferation”.

The values above are taken from US20240150473A1, “MODULATION OF WNT SIGNALING IN GASTROINTESTINAL DISORDERS” (Surrozen Operating, Inc., priority 2021, published 2024).
